Data reported in patent US20240254250A1 (HARPOON THERAPEUTICS, published 2024).

Biological target: 253BH10 trispecific protein
Test: affinity measurement, method not stated

Chain of 253BH10 trispecific protein (chain, as listed by the source limits assumed, form in doubt): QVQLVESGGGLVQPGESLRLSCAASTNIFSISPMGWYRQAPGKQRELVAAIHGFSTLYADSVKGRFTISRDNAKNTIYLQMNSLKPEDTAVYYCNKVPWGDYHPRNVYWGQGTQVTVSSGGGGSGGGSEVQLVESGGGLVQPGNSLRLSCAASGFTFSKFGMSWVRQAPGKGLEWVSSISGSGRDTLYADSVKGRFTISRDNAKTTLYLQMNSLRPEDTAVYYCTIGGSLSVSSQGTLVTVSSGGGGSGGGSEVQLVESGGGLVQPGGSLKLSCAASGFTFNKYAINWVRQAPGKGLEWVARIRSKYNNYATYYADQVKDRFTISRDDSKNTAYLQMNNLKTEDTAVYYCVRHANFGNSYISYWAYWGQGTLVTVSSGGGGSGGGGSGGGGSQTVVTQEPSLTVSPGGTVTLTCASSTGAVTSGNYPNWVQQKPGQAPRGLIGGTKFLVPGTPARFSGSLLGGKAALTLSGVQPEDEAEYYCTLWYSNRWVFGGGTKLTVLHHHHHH

B1: human BCMA protein (receptor)
chain: MLQMAGQCSQNEYFDSLLHACIPCQLRCSSNTPPLTCQRYCNASVTNSVKGTNA
Kd: 27.7 nM
